EC50 of hC3 cleavage data for 20 molecules are collected here from patent US20240018502A1.

The assay concerns the target plasma purified human complement protein C3 (human) (UniProt P01024). The experiment in a line: cell-based or functional assay.

plasma purified human complement protein C3 (human), sequence (P01024 23-667, chain 1 of 2): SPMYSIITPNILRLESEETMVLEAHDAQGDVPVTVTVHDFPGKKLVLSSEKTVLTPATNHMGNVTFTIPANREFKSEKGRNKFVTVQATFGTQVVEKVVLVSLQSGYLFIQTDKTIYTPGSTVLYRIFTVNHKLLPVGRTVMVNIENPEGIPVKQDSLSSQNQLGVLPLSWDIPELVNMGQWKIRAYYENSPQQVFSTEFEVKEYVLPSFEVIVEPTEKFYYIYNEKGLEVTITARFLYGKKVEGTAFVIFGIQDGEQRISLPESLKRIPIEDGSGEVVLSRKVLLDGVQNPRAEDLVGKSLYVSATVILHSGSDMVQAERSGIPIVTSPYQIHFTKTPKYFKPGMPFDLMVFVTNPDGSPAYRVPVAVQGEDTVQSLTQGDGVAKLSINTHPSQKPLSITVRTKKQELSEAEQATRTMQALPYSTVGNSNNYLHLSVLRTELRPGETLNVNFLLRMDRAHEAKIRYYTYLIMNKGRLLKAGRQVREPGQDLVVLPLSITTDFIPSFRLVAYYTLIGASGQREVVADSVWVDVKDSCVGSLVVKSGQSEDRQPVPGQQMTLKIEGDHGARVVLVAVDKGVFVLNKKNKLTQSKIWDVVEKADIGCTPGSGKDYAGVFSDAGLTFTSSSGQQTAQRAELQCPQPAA
plasma purified human complement protein C3 (human), sequence (P01024 672-1663, chain 2 of 2): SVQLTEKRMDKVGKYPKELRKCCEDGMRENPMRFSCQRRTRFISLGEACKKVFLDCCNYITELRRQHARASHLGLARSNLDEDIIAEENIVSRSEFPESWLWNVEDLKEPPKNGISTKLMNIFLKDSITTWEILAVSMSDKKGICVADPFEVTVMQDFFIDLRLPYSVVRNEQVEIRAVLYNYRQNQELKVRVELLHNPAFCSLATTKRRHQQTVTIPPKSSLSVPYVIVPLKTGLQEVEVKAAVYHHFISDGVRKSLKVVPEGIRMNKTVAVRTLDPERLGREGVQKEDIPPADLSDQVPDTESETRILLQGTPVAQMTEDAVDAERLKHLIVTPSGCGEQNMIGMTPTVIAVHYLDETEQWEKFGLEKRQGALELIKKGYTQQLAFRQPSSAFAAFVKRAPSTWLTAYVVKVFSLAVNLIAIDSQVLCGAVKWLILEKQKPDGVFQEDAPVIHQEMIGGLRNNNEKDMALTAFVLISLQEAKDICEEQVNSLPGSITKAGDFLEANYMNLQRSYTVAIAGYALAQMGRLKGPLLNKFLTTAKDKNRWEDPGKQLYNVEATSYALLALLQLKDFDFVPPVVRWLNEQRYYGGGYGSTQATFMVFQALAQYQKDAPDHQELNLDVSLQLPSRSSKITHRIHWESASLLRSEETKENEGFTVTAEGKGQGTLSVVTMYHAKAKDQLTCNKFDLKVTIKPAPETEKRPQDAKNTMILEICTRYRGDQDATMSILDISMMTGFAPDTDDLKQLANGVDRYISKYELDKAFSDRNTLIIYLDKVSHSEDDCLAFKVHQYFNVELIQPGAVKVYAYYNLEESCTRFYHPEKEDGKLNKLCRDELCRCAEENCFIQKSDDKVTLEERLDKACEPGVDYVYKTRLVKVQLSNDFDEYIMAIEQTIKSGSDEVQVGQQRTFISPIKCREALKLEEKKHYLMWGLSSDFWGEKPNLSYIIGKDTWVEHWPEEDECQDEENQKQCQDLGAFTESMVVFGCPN

B1: MTSP-1 ins97aA/F97G/T98L/C122S/Q175M/Q192A/D217I/K224R (enzyme)
chain: VVGGTDADEGEWPWQVSLHALGQGHICGASLISPNWLVSAAHCYIDDRGFRYSDPTQWTAFLGLHDQSQRSAPGVQERRLKRIISHPFFNDGALFDYDIALLELEKPAEYSSMVRPISLPDASHVFPAGKAIWVTGWGHTQYGGTGALILQKGEIRVINQTTCENLLPQMITPRMMCVGFLSGGVDSCAGDSGGPLSSVEADGRIFQAGVVSWGIGCAQRNRPGVYTRLPLFRDWIKENTGV
In turn, B1 registered an EC50 of hC3 cleavage of 0.866 nM.

B2: MTSP-1 ins97aY/F97G/T98V/C122S/Q175M/Q192S/D217V (enzyme)
chain: VVGGTDADEGEWPWQVSLHALGQGHICGASLISPNWLVSAAHCYIDDRGFRYSDPTQWTAFLGLHDQSQRSAPGVQERRLKRIISHPFFNDGYVFDYDIALLELEKPAEYSSMVRPISLPDASHVFPAGKAIWVTGWGHTQYGGTGALILQKGEIRVINQTTCENLLPQMITPRMMCVGFLSGGVDSCSGDSGGPLSSVEADGRIFQAGVVSWGVGCAQRNKPGVYTRLPLFRDWIKENTGV
In turn, B2 had an EC50 of hC3 cleavage of 2.42 nM.

B3: MTSP-1 Q38H/I41A/D60bT/F60eK/Y60gW/F97T/ins97aE/T98G/F99L/C122S/Q175L/Q192A (enzyme)
chain: VVGGTDADEGEWPWQVSLHALGHGHACGASLISPNWLVSAAHCYIDTRGKRWSDPTQWTAFLGLHDQSQRSAPGVQERRLKRIISHPFFNDTEGLDYDIALLELEKPAEYSSMVRPISLPDASHVFPAGKAIWVTGWGHTQYGGTGALILQKGEIRVINQTTCENLLPQLITPRMMCVGFLSGGVDSCAGDSGGPLSSVEADGRIFQAGVVSWGDGCAQRNKPGVYTRLPLFRDWIKENTGV
Regarding B3, the EC50 of hC3 cleavage was determined as 2.71 nM.

B4: MTSP-1 Q38R/I41V/D60bV/F60eV/Y60gF/ins97aE/F97T/T98G/F99L/C122S/Q175L/Q192G (enzyme)
chain: VVGGTDADEGEWPWQVSLHALGRGHVCGASLISPNWLVSAAHCYIDVRGVRFSDPTQWTAFLGLHDQSQRSAPGVQERRLKRIISHPFFNDTEGLDYDIALLELEKPAEYSSMVRPISLPDASHVFPAGKAIWVTGWGHTQYGGTGALILQKGEIRVINQTTCENLLPQLITPRMMCVGFLSGGVDSCGGDSGGPLSSVEADGRIFQAGVVSWGDGCAQRNKPGVYTRLPLFRDWIKENTGV
Take B4: the EC50 of hC3 cleavage was 18.3 nM.

B5: MTSP-1 Q38L/H40P/I41T/D60bV/F60eH/Y60gL/ins97aE/F97T/T98G/F99L/C122S/Q175L/Q192A (enzyme)
chain: VVGGTDADEGEWPWQVSLHALGLGPTCGASLISPNWLVSAAHCYIDVRGHRLSDPTQWTAFLGLHDQSQRSAPGVQERRLKRIISHPFFNDTEGLDYDIALLELEKPAEYSSMVRPISLPDASHVFPAGKAIWVTGWGHTQYGGTGALILQKGEIRVINQTTCENLLPQLITPRMMCVGFLSGGVDSCAGDSGGPLSSVEADGRIFQAGVVSWGDGCAQRNKPGVYTRLPLFRDWIKENTGV
Molecule B5 came in with an EC50 of hC3 cleavage of 6.47 nM.

B6: MTSP-1 Q38R/I41T/D60bH/ins97aE/F97T/T98G/F99L/C122S/Q175L/Q192G (enzyme)
chain: VVGGTDADEGEWPWQVSLHALGRGHTCGASLISPNWLVSAAHCYIDHRGFRYSDPTQWTAFLGLHDQSQRSAPGVQERRLKRIISHPFFNDTEGLDYDIALLELEKPAEYSSMVRPISLPDASHVFPAGKAIWVTGWGHTQYGGTGALILQKGEIRVINQTTCENLLPQLITPRMMCVGFLSGGVDSCGGDSGGPLSSVEADGRIFQAGVVSWGDGCAQRNKPGVYTRLPLFRDWIKENTGV
In turn, B6 came in with an EC50 of hC3 cleavage of 26.2 nM.

B7: MTSP-1 Q38H/H40P/I41A/F60eQ/Y60gW/F97T/ins97aE/T98G/F99L/C122S/Q175L/Q192D (enzyme)
chain: VVGGTDADEGEWPWQVSLHALGHGPACGASLISPNWLVSAAHCYIDDRGQRWSDPTQWTAFLGLHDQSQRSAPGVQERRLKRIISHPFFNDTEGLDYDIALLELEKPAEYSSMVRPISLPDASHVFPAGKAIWVTGWGHTQYGGTGALILQKGEIRVINQTTCENLLPQLITPRMMCVGFLSGGVDSCDGDSGGPLSSVEADGRIFQAGVVSWGDGCAQRNKPGVYTRLPLFRDWIKENTGV
On to B7, for which the EC50 of hC3 cleavage worked out at 5.04 nM.

B8: MTSP-1 Q38K/I41T/ins97aE/F97T/T98G/F99L/C122S/Q175L/Q192A (enzyme)
chain: VVGGTDADEGEWPWQVSLHALGKGHTCGASLISPNWLVSAAHCYIDDRGFRYSDPTQWTAFLGLHDQSQRSAPGVQERRLKRIISHPFFNDTEGLDYDIALLELEKPAEYSSMVRPISLPDASHVFPAGKAIWVTGWGHTQYGGTGALILQKGEIRVINQTTCENLLPQLITPRMMCVGFLSGGVDSCAGDSGGPLSSVEADGRIFQAGVVSWGDGCAQRNKPGVYTRLPLFRDWIKENTGV
The molecule B8 returned an EC50 of hC3 cleavage of 37.8 nM.

B9: MTSP-1 Q38Y/I41S/D60bR/F60eE/Y60gF/ins97aE/F97T/T98G/F99L/C122S/Q175L/Q192V (enzyme)
chain: VVGGTDADEGEWPWQVSLHALGYGHSCGASLISPNWLVSAAHCYIDRRGERFSDPTQWTAFLGLHDQSQRSAPGVQERRLKRIISHPFFNDTEGLDYDIALLELEKPAEYSSMVRPISLPDASHVFPAGKAIWVTGWGHTQYGGTGALILQKGEIRVINQTTCENLLPQLITPRMMCVGFLSGGVDSCVGDSGGPLSSVEADGRIFQAGVVSWGDGCAQRNKPGVYTRLPLFRDWIKENTGV
For B9, the EC50 of hC3 cleavage is 25 nM.

B10: MTSP-1 Q38H/I41S/D60bA/F60eV/ins97aE/F97T/T98G/F99L/C122S/Q175L/Q192V (enzyme)
chain: VVGGTDADEGEWPWQVSLHALGHGHSCGASLISPNWLVSAAHCYIDARGVRYSDPTQWTAFLGLHDQSQRSAPGVQERRLKRIISHPFFNDTEGLDYDIALLELEKPAEYSSMVRPISLPDASHVFPAGKAIWVTGWGHTQYGGTGALILQKGEIRVINQTTCENLLPQLITPRMMCVGFLSGGVDSCVGDSGGPLSSVEADGRIFQAGVVSWGDGCAQRNKPGVYTRLPLFRDWIKENTGV
Turning to B10, the EC50 of hC3 cleavage was 10.9 nM.

B11: MTSP-1 ins97aY/F97H/F99L/C122S/Q175M/Q192A/D217V (enzyme)
chain: VVGGTDADEGEWPWQVSLHALGQGHICGASLISPNWLVSAAHCYIDDRGFRYSDPTQWTAFLGLHDQSQRSAPGVQERRLKRIISHPFFNDHYTLDYDIALLELEKPAEYSSMVRPISLPDASHVFPAGKAIWVTGWGHTQYGGTGALILQKGEIRVINQTTCENLLPQMITPRMMCVGFLSGGVDSCAGDSGGPLSSVEADGRIFQAGVVSWGVGCAQRNKPGVYTRLPLFRDWIKENTGV
In turn, B11 yielded an EC50 of hC3 cleavage of 5.72 nM.

B12: MTSP-1 Q38H/I41A/D60bV/F60eH/ins97aE/F97T/T98G/F99L/C122S/Q175L/Q192D (enzyme)
chain: VVGGTDADEGEWPWQVSLHALGHGHACGASLISPNWLVSAAHCYIDVRGHRYSDPTQWTAFLGLHDQSQRSAPGVQERRLKRIISHPFFNDTEGLDYDIALLELEKPAEYSSMVRPISLPDASHVFPAGKAIWVTGWGHTQYGGTGALILQKGEIRVINQTTCENLLPQLITPRMMCVGFLSGGVDSCDGDSGGPLSSVEADGRIFQAGVVSWGDGCAQRNKPGVYTRLPLFRDWIKENTGV
Molecule B12 returned an EC50 of hC3 cleavage of 5.31 nM.

B13: MTSP-1 Q38H/I41A/D60bV/F60eA/Y60gW/F97T/ins97aE/T98G/F99L/C122S/Q175L/Q192V (enzyme)
chain: VVGGTDADEGEWPWQVSLHALGHGHACGASLISPNWLVSAAHCYIDVRGARWSDPTQWTAFLGLHDQSQRSAPGVQERRLKRIISHPFFNDTEGLDYDIALLELEKPAEYSSMVRPISLPDASHVFPAGKAIWVTGWGHTQYGGTGALILQKGEIRVINQTTCENLLPQLITPRMMCVGFLSGGVDSCVGDSGGPLSSVEADGRIFQAGVVSWGDGCAQRNKPGVYTRLPLFRDWIKENTGV
Regarding B13, the EC50 of hC3 cleavage is 1.57 nM.

B14: MTSP-1 Q38H/I41A/D60bY/F60eT/ins97aE/F97T/T98G/F99L/C122S/Q175L/Q192D (enzyme)
chain: VVGGTDADEGEWPWQVSLHALGHGHACGASLISPNWLVSAAHCYIDYRGTRYSDPTQWTAFLGLHDQSQRSAPGVQERRLKRIISHPFFNDTEGLDYDIALLELEKPAEYSSMVRPISLPDASHVFPAGKAIWVTGWGHTQYGGTGALILQKGEIRVINQTTCENLLPQLITPRMMCVGFLSGGVDSCDGDSGGPLSSVEADGRIFQAGVVSWGDGCAQRNKPGVYTRLPLFRDWIKENTGV
For the molecule B14, the EC50 of hC3 cleavage came to 4.77 nM.

B15: MTSP-1 Q38L/I41T/D60bV/F60eH/Y60gL/ins97aE/F97T/T98G/F99L/C122S/Q175L/Q192S (enzyme)
chain: VVGGTDADEGEWPWQVSLHALGLGHTCGASLISPNWLVSAAHCYIDVRGHRLSDPTQWTAFLGLHDQSQRSAPGVQERRLKRIISHPFFNDTEGLDYDIALLELEKPAEYSSMVRPISLPDASHVFPAGKAIWVTGWGHTQYGGTGALILQKGEIRVINQTTCENLLPQLITPRMMCVGFLSGGVDSCSGDSGGPLSSVEADGRIFQAGVVSWGDGCAQRNKPGVYTRLPLFRDWIKENTGV
Regarding B15, the EC50 of hC3 cleavage worked out at 13.1 nM.

B16: MTSP-1 Q38E/I41V/D60bF/F60eK/Y60gF/F97T/ins97aE/T98G/F99L/C122S/Q175L/Q192G (enzyme)
chain: VVGGTDADEGEWPWQVSLHALGEGHVCGASLISPNWLVSAAHCYIDFRGKRFSDPTQWTAFLGLHDQSQRSAPGVQERRLKRIISHPFFNDTEGLDYDIALLELEKPAEYSSMVRPISLPDASHVFPAGKAIWVTGWGHTQYGGTGALILQKGEIRVINQTTCENLLPQLITPRMMCVGFLSGGVDSCGGDSGGPLSSVEADGRIFQAGVVSWGDGCAQRNKPGVYTRLPLFRDWIKENTGV
Molecule B16 came in with an EC50 of hC3 cleavage of 14.2 nM.

B17: MTSP-1 ins97aL/F97Q/T98G/F99L/C122S/Q175M/Q192S/D217I (enzyme)
chain: VVGGTDADEGEWPWQVSLHALGQGHICGASLISPNWLVSAAHCYIDDRGFRYSDPTQWTAFLGLHDQSQRSAPGVQERRLKRIISHPFFNDQLGLDYDIALLELEKPAEYSSMVRPISLPDASHVFPAGKAIWVTGWGHTQYGGTGALILQKGEIRVINQTTCENLLPQMITPRMMCVGFLSGGVDSCSGDSGGPLSSVEADGRIFQAGVVSWGIGCAQRNKPGVYTRLPLFRDWIKENTGV
Regarding B17, the EC50 of hC3 cleavage turned out to be 6.67 nM.

B18: MTSP-1 Q38H/I41S/D60bT/F60eS/ins97aV/F97D/T98P/F99L/C122S/G151H/Q175L/Q192V (enzyme)
chain: VVGGTDADEGEWPWQVSLHALGHGHSCGASLISPNWLVSAAHCYIDTRGSRYSDPTQWTAFLGLHDQSQRSAPGVQERRLKRIISHPFFNDDVPLDYDIALLELEKPAEYSSMVRPISLPDASHVFPAGKAIWVTGWGHTQYGGTHALILQKGEIRVINQTTCENLLPQLITPRMMCVGFLSGGVDSCVGDSGGPLSSVEADGRIFQAGVVSWGDGCAQRNKPGVYTRLPLFRDWIKENTGV
B18 returned an EC50 of hC3 cleavage of 20.2 nM.

B19: MTSP-1 Q38H/I41S/D60bT/F60eR/ins97aE/F97T/T98G/F99L/C122S/Q175L/Q192E (enzyme)
chain: VVGGTDADEGEWPWQVSLHALGHGHSCGASLISPNWLVSAAHCYIDTRGRRYSDPTQWTAFLGLHDQSQRSAPGVQERRLKRIISHPFFNDTEGLDYDIALLELEKPAEYSSMVRPISLPDASHVFPAGKAIWVTGWGHTQYGGTGALILQKGEIRVINQTTCENLLPQLITPRMMCVGFLSGGVDSCEGDSGGPLSSVEADGRIFQAGVVSWGDGCAQRNKPGVYTRLPLFRDWIKENTGV
As to B19, the EC50 of hC3 cleavage is 15.4 nM.

B20: MTSP-1 Q38H/I41A/D60bT/F60eK/ins97aE/F97T/T98G/F99L/C122S/Q175L/Q192E (enzyme)
chain: VVGGTDADEGEWPWQVSLHALGHGHACGASLISPNWLVSAAHCYIDTRGKRYSDPTQWTAFLGLHDQSQRSAPGVQERRLKRIISHPFFNDTEGLDYDIALLELEKPAEYSSMVRPISLPDASHVFPAGKAIWVTGWGHTQYGGTGALILQKGEIRVINQTTCENLLPQLITPRMMCVGFLSGGVDSCEGDSGGPLSSVEADGRIFQAGVVSWGDGCAQRNKPGVYTRLPLFRDWIKENTGV
On to B20, for which the EC50 of hC3 cleavage was determined as 14.6 nM.
